According to patent publication US7820179B2, “Pegylated PTH as PTH receptor modulators and uses thereof” (Eli Lilly and Company, priority 2006, dated 2010):
Where two headings read alike, the source gives them in different places. No end group written: not given here.

Tests used:
[1] = system: aged osteopenic ovariectomized rats; assay: Weekly PTH(1-34) in aged osteopenic ovariectomized rats; assay type: in vivo, rat
Method: Six-month old ovariectomized Sprague-Dawley rats are maintained on a 12 hr light/dark cycle at 22° C. with ad lib access to food (TD 89222 with 0.5% Ca and 0.4% P, Teklad, Madison, Wis.) and water. Ovariectomized rats are allowed to lose bone for 1 month, before treatment with rhPTH (1-34) for the following 3 months. The aged osteopenic ovariectomized rats are injected subcutaneously, weekly, with 0, 10 or 30 μg/kg human PTH(1-34) for 12 weeks. Sham and ovx controls are injected with the vehicle only. Lumbar vertebra are excised at necropsy and analyzed by micro-CT (Stratec), and then prepared for biomechanical testing. Strength in Newtons, (N), is evaluated by loading vertebra specimens to failure. Significance with respect to ovx vehicle controls is indicated by * in Table 7 below (Fishers PLSD, P<0.05).

[2] = system: aged osteopenic ovariectomized rats; conditions: 5 μg/kg/d, aged osteopenic ovariectomized rat model, literature; cited from earlier work
[3] = 5 μg/kg/d (1 nmol/kg/d); cited from earlier work
[4] = system: aged osteopenic ovariectomized rats; assay: Aged osteopenic ovariectomized rats: vertebral BMD/BMC, bone biomechanical strength, serum calcium; assay type: in vivo, rat; conditions: for Hypercalcemic Dose/Femoral Neck Strength Dose / Hypercalcemic Dose/Midshaft Strength Dose / Hypercalcemic Dose/Vertebral BMC Dose / Hypercalcemic Dose/Vertebral BMD Dose / Hypercalcemic Dose/Vertebral Strength Dose: derived from Table 3; for Vertebral BMC Dose: dose at which Sham level of vertebral BMC is achieved; for Vertebral BMD Dose: dose at which Sham level of vertebral BMD is achieved, s.c. every 6 or 7 days for two months; for Fem Neck Strength Dose: dose at which femoral neck strength comparable to sham vehicle control and positive control is achieved; for Midshaft Strength Dose: dose at which midshaft strength comparable to sham vehicle control and positive control is achieved; for Vertebral Strength Dose: dose at which vertebral strength comparable to sham and positive control is achieved; for Hypercalcemia Dose: sera 24 hours after administration, > means highest dose tested, not reached
Method: Hypercalcemia is defined herein as the upper 97.5 percentile serum calcium value of normal ovariectomized vehicle controls for the animal type used, using clinical chemistry data and sera collected from cardiac puncture (International Federation of Clinical Chemistry, H E Solberg in Tietz Fundamentals of Clinical Chemistry, 5th edition, Burtis C A and Ashwood E R, editors, 2001, pp 251-261). The value reflecting the 97.5 percentile is 11.2 mg of calcium per dL of serum from ovx vehicle control. The “Hypercalcemic Dose”, i.e., the dose at which hypercalcemia is observed 24 hours after injection of the test compound using clinical chemistry data and sera collected from cardiac puncture, is determined by interpolation, using regression analysis to fit the calcemic dose response observed 24 hours after administering the compound to ovariectomized rats.
Female Sprague-Dawley rats about 6 months of age are ovariectomized, except for sham controls, and maintained on a 12 hour light/dark cycle at 22° C. with ad lib access to food (TD 89222 with 0.5% Ca and 0.4% P, Teklad, Madison, Wis.) and water. Ovariectomized (Ovx) rats are allowed to lose bone for one month before treatment with compounds of the invention for two additional months. The compound to be tested is subcutaneously administered at various doses (as indicated in Table 3 below) in a vehicle of 20 mM NaH2PO4 in 0.9% NaCl, 3 mg/ml mannitol, pH 5, every 6 or 7 days for two months. Sham and Ovx controls are treated with the vehicle only (“sham vehicle control” and “ovx vehicle control”). Sera are then collected by cardiac puncture under isoflurane anesthesia at necropsy, and analyzed using a clinical chemistry analyzer. Lumbar vertebra L4-6 and left femora are removed, cleaned of soft-tissue and stored in 50% ethanol/saline at 4° C. At room temperature, L-5 in 50% EtOH/saline are wrapped in Parafilm and centered with respect to the QCT gantry (Research M, Stratec). A coronal scout scan of the L-5 vertebra is generated first in 2D before 3D analysis. QCT parameters are measured including BMD (mg/cc), BMC (mg), and cross-sectional area (mm^2). Lumbar vertebra L-5, femoral midshaft, and proximal femur are then prepared for biomechanical testing. Strength (N) is evaluated by loading the specimens to failure as described previously (Sato, et al., Endocrinology, […]:4330-4337, 1997).
Pegylated compounds of the invention are evaluated in this assay relative to a positive control of 3-5 μg/kg/d PTH(1-38). PTH(1-34) and PTH(1-38) are found to be indistinguishable in terms of skeletal efficacy or calcemic effects in osteopenic ovariectomized rats. It has been previously shown that rats administered 5 μg/kg/d (1 nmol/kg/d) PTH(1-34) have a systemic exposure that is about 3 times that of PTH(1-34) (i.e., FORTEO™) in humans (Tashjian and Chabner, J. Bone Miner Res, 17:1151-1161, 2002; Tashjian and Gagel, J. Bone Miner Res, 21:354-365, 2006). […] This is confirmed for PTH(1-38) in this model with a dosing of 3-5 μg/kg/d.

[5] = biological target: T1, PTHR1 (PTH Receptor 1) (Homo sapiens, UniProt Q03431); assay: PTH receptor internalization in HEK 293 cells transfected with PTHR-emGFP; assay type: cell-based; conditions: 100 nM
T1 construct: host or cells: HEK 293 cells
T1 sequence (Q03431 27-593): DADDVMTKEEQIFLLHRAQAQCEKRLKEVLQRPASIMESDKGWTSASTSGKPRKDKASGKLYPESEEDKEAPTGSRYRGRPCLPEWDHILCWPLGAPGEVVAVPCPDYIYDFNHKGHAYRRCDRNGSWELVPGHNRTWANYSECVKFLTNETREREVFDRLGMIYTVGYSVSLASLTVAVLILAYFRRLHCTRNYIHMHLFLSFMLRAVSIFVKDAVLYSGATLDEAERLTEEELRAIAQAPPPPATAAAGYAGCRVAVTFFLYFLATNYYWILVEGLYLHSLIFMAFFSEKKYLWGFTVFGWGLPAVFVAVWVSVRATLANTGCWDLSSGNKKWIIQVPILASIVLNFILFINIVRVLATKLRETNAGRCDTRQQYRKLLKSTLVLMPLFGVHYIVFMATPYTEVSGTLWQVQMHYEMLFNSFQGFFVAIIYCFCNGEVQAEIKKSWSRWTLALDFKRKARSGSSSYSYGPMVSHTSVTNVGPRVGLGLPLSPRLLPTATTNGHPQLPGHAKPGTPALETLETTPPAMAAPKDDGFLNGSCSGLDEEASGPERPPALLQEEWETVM
Method: The kinetics of PTHR1 (PTH Receptor 1) internalization for compounds of the invention are determined following ligand binding to membrane receptors. HEK 293 cells are transfected with PTHR-emGFP plasmid (Invitrogen).
The cells are seeded at 7,000 cells/well, 100 μL/well into clear bottomed, black, 96 well plate coated with poly-D lysine. 24 hours after being seeded into the 96 well plate, the cells are dosed with 10 μL of a compound to be tested, at final concentrations of 100 nM at staggered time points from 0 minutes to 3 hours. Media is aspirated at end point of dosing. Cells are fixed with 100 μL Prefer (Anatech, Battle Creek, Mich.) for 30 minutes. Prefer is aspirated from the cells, and cells are washed three times with 100 μL 1×PBS. Cells are stained with 100 μL diluted Hoechst nuclear stain (diluted in 1×PBS) for 30 minutes. Hoechst stain is aspirated and replaced with 1×PBS. Plates are stored in the dark at 4° C. until scanning. Cells are scanned within 48 hours using a Cellomics® ArrayScan. Representative data from various timepoints, set forth as percent of vehicle only control (baseline=100%), are presented in Table 8.

[6] = system: aged osteopenic ovariectomized rats; assay: Direct comparison of 2 kD and 5 kD pegylated SEQ ID NO: 1 in aged osteopenic ovariectomized rats; assay type: in vivo, rat; conditions: for Serum Calcium: 24 hours after dosing
Source text: A compound of the invention with SEQ ID NO: 1, wherein the mPEG to which it is conjugated is a 2 kD mPEG, is directly compared to a compound of the invention with SEQ ID NO: 1, wherein the mPEG to which it is conjugated is a 5 kD mPEG. Aged osteopenic ovariectomized rats are permitted to lose bone for one month before dosing (nmol/kg as in Table 5 and 6) every 6 days with vehicle alone, or the 2 kD pegylated SEQ ID NO: 1 compound or the 5 kD pegylated SEQ ID NO: 1 compound for 8 weeks.

[7] = up to 30 ug/kg (7 nmol/kg), 12 weeks of treatment
[8] = 11 nmol/kg every 6 days for 8 weeks
[9] = 32 nmol/kg every 6 days for 8 weeks
[10] = 110 nmol/kg every 6 days for 8 weeks

| Molecule | PTHR1 internalization, percent of vehicle only control (baseline=100%) ([5]; 20 min) | PTHR1 internalization, percent of vehicle only control (baseline=100%) ([5]; 40 min) | PTHR1 internalization, percent of vehicle only control (baseline=100%) ([5]; 60 min) | PTHR1 internalization, percent of vehicle only control (baseline=100%) ([5]; 180 min) | Hypercalcemic Dose/Femoral Neck Strength Dose [4] | Hypercalcemic Dose/Midshaft Strength Dose [4] | Hypercalcemic Dose/Vertebral BMC Dose [4] | Hypercalcemic Dose/Vertebral BMD Dose [4] | Hypercalcemic Dose/Vertebral Strength Dose [4] | Vertebral BMC Dose [4] | Vertebral BMD Dose [4] | Fem Neck Strength Dose [4] | Midshaft Strength Dose [4] | Vertebral Strength Dose [4] | Hypercalcemia Dose [4] | other results |
| --- | --- | --- | --- | --- | --- | --- | --- | --- | --- | --- | --- | --- | --- | --- | --- | --- |
| CC[C@H](C)[C@H](NC(=O)[C@H](CCC(=O)O)NC(=O)[C@H](CO)NC(=O)[C@@H](NC(=O)[C@@H](N)CO)C(C)C)C(=O)N[C@@H](CCC(N)=O)C(=O)N[C@@H](CC(C)C)C(=O)N[C@@H](CCSC)C(=O)N[C@@H](Cc1cnc[nH]1)C(=O)N[C@@H](CC(N)=O)C(=O)N[C@@H](CC(C)C)C(=O)NCC(=O)N[C@@H](CCCCN)C(=O)N[C@@H](Cc1cnc[nH]1)C(=O)N[C@@H](CC(C)C)C(=O)N[C@@H](CC(N)=O)C(=O)N[C@@H](CO)C(=O)N[C@@H](CCSC)C(=O)N[C@@H](CCC(=O)O)C(=O)N[C@@H](CCCN=C(N)N)C(=O)N[C@H](C(=O)N[C@@H](CCC(=O)O)C(=O)N[C@@H](Cc1c[nH]c2ccccc12)C(=O)N[C@@H](CC(C)C)C(=O)N[C@@H](CCCN=C(N)N)C(=O)N[C@@H](CCCCN)C(=O)N[C@@H](CCCCN)C(=O)N[C@@H](CC(C)C)C(=O)N[C@@H](CCC(N)=O)C(=O)N[C@@H](CC(=O)O)C(=O)N[C@H](C(=O)N[C@@H](Cc1cnc[nH]1)C(=O)N[C@@H](CC(N)=O)C(=O)N[C@@H](Cc1ccccc1)C(=O)O)C(C)C)C(C)C [PTH(1-34)] |  |  |  |  |  |  |  |  |  |  |  |  |  |  |  | Vertebral strength: Average Load to Failure ([1]; 10 ug/kg s.c. weekly for 12 weeks): 222 N; Vertebral BMD: Average BMD ([1]; 10 μg/kg s.c. weekly for 12 weeks): 534 mg/mL; Vertebral strength: Average Load to Failure ([1]; 30 ug/kg s.c. weekly for 12 weeks): 243 N; Vertebral BMD: Average BMD ([1]; 30 μg/kg s.c. weekly for 12 weeks): 529 mg/mL; Serum Calcium ([1]; approximately 24 hours after the last dose): normal; Effect on vertebral BMD relative to Ovx vehicle controls [1, 7]: no significant effect; Effect on vertebral biomechanical strength relative to Ovx vehicle controls [1, 7]: no significant effect; Restoration of vertebral BMD from Ovx to sham vehicle control levels [2]: restore vertebral BMD from Ovx to sham vehicle control levels; Systemic exposure in rats relative to PTH(1-34) (FORTEO) in humans [3]: about 3 times |
| PTH(1-38): positive control, parathyroid hormone fragment 1-38 (SVSEIQLMHNLGKHLNSMERVEWLRKKLQDVHNFVALG) [reference compound] | 166% | 177% | 224% | 175% |  |  |  |  |  |  |  |  |  |  |  | Restoration of vertebral BMD from Ovx to sham vehicle control levels ([4]; 3-5 μg/kg/d, positive control): confirmed |
| SEQ ID NO: 1 but unpegylated and Lysine at amino acid 26: unpegylated molecule with the backbone of SEQ ID NO: 1 with a lysine residue at position 26 (SVSEIQLMHNLGRHLASMERVEWLRKLLQDVHNF-NH2) | 106% | 126% | 113% | 142% |  |  |  |  |  |  |  |  |  |  |  |  |
| SEQ ID NO: 1 with 2 kD mPEG (SVSEIQLMHNLGRHLASMERVEWLRKLLQDVHNF-NH2; not fully specified (residue 26)) |  |  |  |  | >10.0 | >3.43 | >3.43 | >1.0 | >10.0 | 32 nmol/kg | 110 nmol/kg | 11 nmol/kg | 32 nmol/kg | 11 nmol/kg | >110 nmol/kg | Hypercalcemia at the highest dose tested ([4]; aged Ovx rats): absence of hypercalcemia; Vertebral BMD [6, 8]: 590 mg/cc; Serum Calcium [6, 8]: 10.45 mg/dL; Vertebral BMD [6, 9]: 603 mg/cc; Serum Calcium [6, 9]: 10.38 mg/dL; Vertebral BMD [6, 10]: 623 mg/cc; Serum Calcium [6, 10]: 10.25 mg/dL |
| SEQ ID NO: 3 with 2 kD mPEG (PVSEIQLMHNLGRHLASMERVEWLRKLLQDVHNF-NH2; also: 2 kD mPEG, site not given here) |  |  |  |  | 8.8 | 8.8 | 8.8 | >0.9 | >0.9 | 11 nmol/kg | >110 nmol/kg | 11 nmol/kg | 11 nmol/kg | >110 nmol/kg | 97 nmol/kg |  |
